From patent US9968687B2, “Anti-DLL3 antibody drug conjugates” (AbbVie Stemcentrx LLC, priority 2013, dated 2018)
Residue numbers refer to the chain shown, from its start.

T1: murine DLL3 (Mus musculus, UniProt O88516)
T1 construct: expressed in transfected cells; host or cells: 293 (HEK-293T) cells
T1 sequence (O88516 33-585 isoform O88516-2 limits assumed): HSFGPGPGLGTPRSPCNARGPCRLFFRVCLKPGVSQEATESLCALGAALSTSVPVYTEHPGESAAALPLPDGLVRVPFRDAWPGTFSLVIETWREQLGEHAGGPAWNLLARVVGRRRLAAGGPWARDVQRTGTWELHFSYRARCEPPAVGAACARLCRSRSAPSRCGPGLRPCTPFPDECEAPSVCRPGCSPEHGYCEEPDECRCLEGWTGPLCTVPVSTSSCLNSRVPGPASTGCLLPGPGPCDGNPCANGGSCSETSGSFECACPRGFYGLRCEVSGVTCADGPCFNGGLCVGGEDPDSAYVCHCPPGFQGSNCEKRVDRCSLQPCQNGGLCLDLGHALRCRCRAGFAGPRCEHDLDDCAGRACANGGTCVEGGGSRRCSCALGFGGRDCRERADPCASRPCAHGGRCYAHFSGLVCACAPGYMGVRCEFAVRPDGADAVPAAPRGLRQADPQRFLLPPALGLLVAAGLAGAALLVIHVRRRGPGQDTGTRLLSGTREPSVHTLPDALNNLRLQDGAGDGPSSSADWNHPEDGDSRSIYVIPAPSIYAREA

T2: human DLL3 antigen (Homo sapiens, UniProt Q9NYJ7)
T2 sequence (Q9NYJ7 27-618): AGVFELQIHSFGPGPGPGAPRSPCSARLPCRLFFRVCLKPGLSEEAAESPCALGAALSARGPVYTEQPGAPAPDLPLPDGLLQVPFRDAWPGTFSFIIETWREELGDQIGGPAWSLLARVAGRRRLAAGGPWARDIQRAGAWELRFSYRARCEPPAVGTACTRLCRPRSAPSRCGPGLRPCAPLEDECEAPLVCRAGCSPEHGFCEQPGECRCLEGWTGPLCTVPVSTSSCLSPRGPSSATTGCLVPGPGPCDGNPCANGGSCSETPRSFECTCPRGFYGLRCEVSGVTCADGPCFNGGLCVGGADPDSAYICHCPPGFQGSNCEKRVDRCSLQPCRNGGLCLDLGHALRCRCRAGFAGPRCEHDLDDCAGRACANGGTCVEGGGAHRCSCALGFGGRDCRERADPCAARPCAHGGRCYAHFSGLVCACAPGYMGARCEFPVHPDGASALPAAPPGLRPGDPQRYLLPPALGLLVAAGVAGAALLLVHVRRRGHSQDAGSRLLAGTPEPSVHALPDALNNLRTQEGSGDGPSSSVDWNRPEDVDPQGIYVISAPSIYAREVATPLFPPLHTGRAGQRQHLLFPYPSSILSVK

B1: SC16.15: murine anti-DLL3 monoclonal antibody, sequences in FIGS. 3A and 3B (antibody, V domains shown)
VL: DIQMTQSPASLAASVGETVAITCRASENIYYNLAWYQQKQGKSPQLLIYTANSLEDGVPSRFSGSGSGTQYSLKINSMQPEDSATYFCKQAYDVPPTFGGGTKLEIK
VH: QVQLQQSGAELAKPGASVKMSCKASGYTFTRYWIHWIKQRPGQGLEWIGYINPTTVYTEFNQNFKDKATLTADKSSTTASMQLSSLTSEDSAVYYCARGGSNFFDYWGQGTTLTVSS
B2: SC16.8: murine anti-DLL3 monoclonal antibody, sequences in FIGS. 3A and 3B (antibody, V domains shown)
VL: EIQMTQSPSSMSASLGDRITITCQATQDIVKNLNWYQQKPGKPPSFLIYYAIELAEGVPSRFSGSGSGSDYSLTISNLESEDFADYYCLQFYEFPFTFGAGTKLELK
VH: QAQLQQSGAELVRPGTSVKVSCKASGYAFTNYLIEWVKQRPGQGLEWIGVINPGTGGTNYNENFKGKATLTADKSSSTAYMQLSSLTSDDSAVYFCARSPYDYHEGAMDYWGQGTSVTVSS
B3: SC16.25: murine anti-DLL3 monoclonal antibody, sequences in FIGS. 3A and 3B (antibody, V domains shown)
VL: QIVLTQSPAIMSASPGEKVTMTCSASSSVSYMHWYQQKSGTSPKRWIYDSSKLASGVPARFSGSGSGTSYSLTISSMEAEDAATYYCQQWSSNPLTFGAGTKLELK
VH: QVTLKESGPGILQPSQTLSLTCSFSGFSLSTSGMGVGWIRQPSGEGLEWLTDIWWDDNKYYNPSLKSRLTISKDTSSNQVFLNITSVDTADTATYYCARRVNYYYDPYYAMDYWGQGTSVTVSS
B4: SC16.34: murine anti-DLL3 monoclonal antibody, sequences in FIGS. 3A and 3B (antibody, V domains shown)
VL: SIVMTQTPKFLLVSAGDRVTITCKASQSVSNDVAWYQQKPGQSPKLLIYYASNRYSGVPDRFTGSGYGTDFTFTISTVQAEDLAVYFCQQDYSSPWTFGGGTKLEIK
VH: QIQLVQSGPELKRPGETVKISCKASGYTFTNYGMNWVKQAPGKGLKWMGWINTYTGDPTYADDFKGRFAFSLETSASTAYLQINNLKNEDTATYFCARIGGNSPSDYWGQGTSLTVSS
B5: SC16.56: murine anti-DLL3 monoclonal antibody, sequences in FIGS. 3A and 3B (antibody, V domains shown)
VL: B4 VL with A34V, S56T, T63A, T72S, S93T, K107R
VH: B4 VH with R13K, G49A, D57E, Y80S, N84I, G101D, N102S, S113T
B6: SC16.10: murine anti-DLL3 monoclonal antibody, sequences in FIGS. 3A and 3B (antibody, V domains shown)
VL: QIVLTQSPAIMSASLGERVTMTCTASSSVSSSYLHWYQQKPGSSPKLWIYSTSNLASGVPTRFSGSGSGTSYSLTISSMEAEDAATYYCHQYHRSPFTFGSGTKLEIK
VH: QVTLKESGPGILQSSQTLSLTCSFSGFSLSTSGMGVGWIRQPSGKGLEWLAHIWWDDVKRYNPVLKSRLTISKDTSSSQVFLKIASVDTADTATYYCARLVDDLYYFDYWGQGTTLTVSS
B7: SC16.13: murine anti-DLL3 monoclonal antibody, sequences in FIGS. 3A and 3B (antibody, V domains shown)
VL: QIVLTQSPALVSASPGEKVTMTCSASSSVSYMYWYQQKPRSSPKPWIYLTSNLASGVPARFSGSGSGTSYSLTISSMEAEDAATYYCQQWRSNPFTFGSGTKLEIK
VH: QVTLKESGPGILQPSQTLSLTCSFSGFSLSTSGMGVGWIRQPSGKGLEWLAHIWWDDVKRYNPALKSRLTISKDTSSSQVFLKIASVDTADTATYYCARIVSFDNDVVSAMDYWGQGTSVTVSS
B8: SC16.65: murine anti-DLL3 monoclonal antibody, sequences in FIGS. 3A and 3B (antibody, V domains shown)
VL: B7 VL with V11M, A25V, S26T, M77V, S92N, L103V
VH: B7 VH with H52L, T75A, V101A, F103Y, N105Y, S109Y, T121S
B9: SC16.4: murine anti-DLL3 monoclonal antibody; VL/VH SEQ ID NOS: 25 and 27 (antibody, listed as Mus musculus, V domains shown)
VH: QIQLVQSGPELKKPGETVKISCKASGYTFTDYSMHWVKQAPGKGLKWMGWINTETGEPGYADDFKGRFAFSLETSASTAYLQINNLKNEDTATYFCARYDGYAMDYWGQGTSVTVSS
VL: DIQMTQTTSSLSASLGDRVTISCRASQDISNYLNWYQQKPDGTVKLLIYYTSRLHSGVPSRFSGSGSGTDYSLTISNLELEDIATYFCQQGDMLPWTFGGGTKLEIK

Key:
murine DLL3 = molecular target: T1, murine DLL3; assay: Flow cytometry on 293 cells over-expressing murine DLL3; format: binding
Protocol: In addition to evaluating the exemplary modulators as set forth above, flow cytometry was performed in order to confirm that selected SC16 antibody modulators can immunospecifically associate with human DLL3 and to determine whether the same antibodies cross-react with cynomolgus, rat and/or murine DLL3. More particularly the exemplary murine antibodies were analyzed by flow cytometry using a FACSCanto II and 293 cells over-expressing murine, rat, cynomolgus or human DLL3. In some cases, exemplary murine modulators were analyzed by flow cytometry using a FACSCanto II and yeast cells displaying cynomolgus DLL3 using the methods described by Cochran et al. (J Immunol Methods. 287 (1-2):147-158 (2004).
Such results are not unexpected given that murine DLL3 is approximately 83% homologous with isoform 2 of human DLL3. It will be appreciated that this cross-reactivity may be advantageously exploited in the context of the instant invention through the use of animal models in drug discovery and development.

human DLL3 antigen = molecular target: T2, human DLL3 antigen; assay: Surface plasmon resonance (Biacore 2000), humanized versus chimeric constructs; settings: concentration series of 25 and 12.5 nM human DLL3 antigen, 1:1 Langmuir binding model, estimated, read-out: KD of antibody binding to human DLL3 antigen
Protocol: Besides the aforementioned assays, humanized constructs hSC16.13, hSC16.15, hSC16.25, hSC16.34 and hSC16.56 from Example 4 were analyzed to determine if the CDR grafting process had appreciably altered their binding characteristics. In this respect the humanized constructs (CDR grafted) were compared with “traditional” chimeric antibodies comprising the murine parent (or donor) heavy and light chain variable domains and a human constant region substantially equivalent to that used in the humanized constructs. With these constructs surface plasmon resonance (SPR) was conducted using a Biacore 2000 (GE Healthcare) to identify any subtle changes in rate constants brought about by the humanization process.
Based on a concentration series of 25 and 12.5 nM of human DLL3 antigen and using a 1:1 Langmuir binding model, the KD of the SC16.15 antibody binding to human DLL3 antigen was estimated to be 0.2 nM.

Row | Molecule | cross-reactivity with murine DLL3 (murine DLL3) | Kd (human DLL3 antigen)
1 | B1 | cross-react with murine DLL3 to a greater or lesser extent | ~0.2 nM
2 | B2 | cross-react with murine DLL3 to a greater or lesser extent | –
3 | B3 | did not appreciably associate with murine DLL3 | –
4 | B4 | cross-react with murine DLL3 to a greater or lesser extent | –
5 | B5 | cross-react with murine DLL3 to a greater or lesser extent | –
6 | B6 | did not appreciably associate with murine DLL3 | –
7 | B7 | did not appreciably associate with murine DLL3 | –
8 | B8 | did not appreciably associate with murine DLL3 | –
9 | B9 | cross-react with murine DLL3 to a greater or lesser extent | –
